According to US20120316071A1 (published 2012):
Values belong to the binder of their own block, whether it stands above or below them.

Legend:
[1] = molecular target: T1, rHuman Erythropoietin R/Fc Chimera, CF (R&D Systems Cat#963-ER) (human, UniProt P19235 25-250); test: Multispot ECL (MSD), antigen spotted on plate, Fab 15.6 nM; blank spot 294
T1 construct: Bought recombinant protein; also called EPO R/Fc; Epo R; Fc part of the bought chimera not given
T1 sequence (looked up): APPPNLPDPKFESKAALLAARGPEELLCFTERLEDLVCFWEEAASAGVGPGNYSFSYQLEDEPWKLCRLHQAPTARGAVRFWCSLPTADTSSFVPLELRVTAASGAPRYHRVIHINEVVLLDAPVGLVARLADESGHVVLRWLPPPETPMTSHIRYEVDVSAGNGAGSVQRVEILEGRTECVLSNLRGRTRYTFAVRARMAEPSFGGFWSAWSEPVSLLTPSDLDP

[2] = molecular target: T2, rHuman Notch-1/Fc Chimera, CF (R&D Systems Cat#3647-TK) (human, UniProt P46531 19-526); test: as above
T2 construct: Bought recombinant protein; Fc part of the bought chimera not given

[3] = molecular target: T3, Recombinant Human DLL4 (R&D Systems Cat#1506-D4/CF) (human, UniProt Q9NR61 27-524); test: as above
T3 construct: Bought recombinant protein; also called rHuman DLL4; delta-like protein 4

[4] = molecular target: T4, rHuman IGF-1 sR, CF (R&D Systems Cat#391-GR) (human, UniProt P08069 31-932); test: as above
T4 construct: Bought recombinant soluble receptor; also called insulin-like growth factor-1 soluble receptor

[5] = molecular target: T5, rHuman EGF R/Fc Chimera, CF (R&D Systems Cat#344-ER) (human, UniProt P00533 25-645); test: MSD multispot ECL, antigen spotted on plate; Fab 0.51 uM; blank spot 1096
T5 construct: Bought recombinant protein; also called epidermal growth factor receptor; Fc part of the bought chimera not given

[6] = molecular target: T6, rHuman P-Cadherin/Fc Chimera, CF (R&D Systems Cat#861-PC) (human, UniProt P22223 108-654); test: as above
T6 construct: Bought recombinant protein; Fc part of the bought chimera not given

[7] = molecular target: T7, rHuman HGF R/c-MET/Fc Chimera, CF (R&D Systems Cat#358-MT/CF) (human, UniProt P08581 25-932); test: as above
T7 construct: Bought recombinant protein; also called HGF R/Fc; hepatocyte growth factor receptor; Fc part of the bought chimera not given

[8] = molecular target: T8, rHuman IGF-1 sR, CF (R&D Systems Cat#391-GR) (human, UniProt P08069 31-932); test: as above
T8 construct: Bought recombinant soluble receptor; also called insulin-like growth factor-1 soluble receptor

[9] = molecular target: T9, rHuman CD44/Fc Chimera, CF (R&D Systems Cat#3660-CD) (human, UniProt P16070 21-220); test: Multispot ECL (MSD) titration; antigen spotted on plate; Fab 24.5 nM; blank spot 149
T9 construct: Bought Fc chimera; Fc part of the bought chimera not given

[10] = molecular target: T10, rHuman HGF R/c-MET/Fc Chimera, CF (R&D Systems Cat#358-MT/CF) (human, UniProt P08581 25-932); test: as above
T10 construct: Bought Fc chimera; also called HGF R/Fc; hepatocyte growth factor receptor; Fc part of the bought chimera not given

[11] = molecular target: T11, rHuman IGF-1 sR (IGF-1 sR), CF (R&D Systems Cat#391-GR) (human, UniProt P08069 31-932); test: as above
T11 construct: Bought soluble receptor; also called insulin-like growth factor-1 soluble receptor

[12] = molecular target: T12, rHuman ErbB2/Fc Chimera, CF (R&D Systems Cat#1129-ER) (human, UniProt P04626 23-652); test: as above
T12 construct: Bought Fc chimera; also called human epidermal growth factor 2 receptor; Fc part of the bought chimera not given

[13] = molecular target: T13, Recombinant Human DLL4 (R&D Systems Cat#1506-D4/CF) (human, UniProt Q9NR61 27-524); test: as above
T13 construct: Bought recombinant protein; also called delta-like protein 4; rHuman DLL4

[14] = molecular target: T14, rHuman Notch-1/Fc Chimera, CF (R&D Systems Cat#3647-TK) (human, UniProt P46531 19-526); test: as above
T14 construct: Bought Fc chimera; Fc part of the bought chimera not given

[15] = molecular target: T15, rHuman CD44/Fc Chimera, CF (R&D Systems Cat#3660-CD) (human, UniProt P16070 21-220); test: MSD Multispot ECL, antigen spotted on plate, Fab at 240 nM; blank spot 316
T15 construct: Bought Fc chimera; Fc part of the bought chimera not given

[16] = molecular target: T16, rHuman Notch-1/Fc Chimera, CF (R&D Systems Cat#3647-TK) (human, UniProt P46531 19-526); test: as above
T16 construct: Bought Fc chimera; Fc part of the bought chimera not given

[17] = molecular target: T17, Recombinant Human DLL4 (R&D Systems Cat#1506-D4/CF) (human, UniProt Q9NR61 27-524); test: as above
T17 construct: Bought recombinant protein; also called rHuman DLL4; delta-like protein 4

[18] = molecular target: T18, rHuman P-Cadherin/Fc Chimera, CF (R&D Systems Cat#861-PC) (human, UniProt P22223 108-654); test: as above
T18 construct: Bought Fc chimera; Fc part of the bought chimera not given

[19] = molecular target: T19, rHuman Erythropoietin R/Fc Chimera, CF (R&D Systems Cat#963-ER) (human, UniProt P19235 25-250); test: as above
T19 construct: Bought Fc chimera; also called EPO R/Fc; Epo R; Fc part of the bought chimera not given
T19 sequence (looked up): T1 sequence (looked up)

B1: Fab VH1-46_IGHD6-13*01_IGHJ4*01 & B3_IGKJ1*01 (Fab, V domains shown)
VH: QVQLVQSGAEVKKPGASVKVSCKASGYTFTSYYMHWVRQAPGQGLEWMGIINPSGGSTSYAQKFQGRVTMTRDTSTSTVYMELSSLRSEDTAVYYCAREGYSSSWYDYFDYWGQGTLVTVSS
VL: not shown
notes: Germline Fab made in E. coli; VH was cloned into Plasmid A (CH1, His6 and Flag tags) and the kappa VL into Plasmid C (kappa CL)
ECL signal [1]: 8360 | ECL signal [2]: 418 | ECL signal [3]: 525 | ECL signal [4]: 349

B3: Fab VH1-46_IGHD3-10*01_IGHJ4*01 & O1_IGKJ1*01 (Fab, V domains shown)
VH: QVQLVQSGAEVKKPGASVKVSCKASGYTFTSYYMHWVRQAPGQGLEWMGIINPSGGSTSYAQKFQGRVTMTRDTSTSTVYMELSSLRSEDTAVYYCAREYYYGSGSYYNDYFDYWGQGTLVTVSS
VL: DIVMTQTPLSLPVTPGEPASISCRSSQSLLDSDDGNTYLDWYLQKPGQSPQLLIYTLSYRASGVPDRFSGSGSGTDFTLKISRVEAEDVGVYYCMQRIEFPSWTFGQGTKVEIKR
notes: Germline library Fab expressed in E. coli; VH was cloned into Plasmid A (CH1 constant region, His6 and Flag tags); The kappa VL was cloned into Plasmid C (kappa CL)
ECL signal [9]: 267 | ECL signal [10]: 211 | ECL signal [11]: 239 | ECL signal [12]: 241 | ECL signal [13]: 339 | ECL signal [14]: 434

Now from value to binder:

ECL signal [5]: 2360 | ECL signal [6]: 2390 | ECL signal [7]: 1990 | ECL signal [8]: 2240
B2: Fab VH4-34_IGHD7-27*01_IGHJ4*01 & L5_IGKJ1*01 (Fab, V domains shown)
VH: QVQLQQWGAGLLKPSETLSLTCAVYGGSFSGYYWSWIRQPPGKGLEWIGEINHSGSTNYNPSLKSRVTISVDTSKNQFSLKLSSVTAADTAVYYCARANWGDYFDYWGQGTLVTVSS
VL: DIQMTQSPSSVSASVGDRVTITCRASQGISSWLAWYQQKPGKAPKLLIYAASSLQSGVPSRFSGSGSGTDFTLTISSLQPEDFATYYCQQANSFPPWTFGQGTKVEIKR
notes: Germline library Fab expressed in E. coli; VH was cloned into Plasmid A, which adds CH1 with His6 and Flag tags

ECL signal [15]: 470 | ECL signal [16]: 368 | ECL signal [17]: 1270 | ECL signal [18]: 383 | ECL signal [19]: 478
B4: Fab VH6-1_IGHD3-3*01_IGHJ4*01 & V4-3_IGLJ4*01 (Fab, V domains shown)
VH: QVQLQQSGPGLVKPSQTLSLTCAISGDSVSSNSAAWNWIRQSPSRGLEWLGRTYYRSKWYNDYAVSVKSRITINPDTSKNQFSLQLNSVTPEDTAVYYCAREYYDFWSGYYTDYFDYWGQGTLVTVSS
VL: QPVLTQPTSLSASPGASARLTCTLRSGINLGSYRIFWYQQKPESPPRYLLSYYSDSSKHQGSGVPSRFSGSKDASSNAGILVISGLQSEDEADYYCMIWHSSASFVFGGGTQLIIL
notes: Tested as a purified germline Fab made in E. coli; The VH was cloned into plasmid A (CH1 constant region, His6 and Flag tags) and the lambda VL into plasmid E (lambda CL)
